Test results taken from article PMC5562738, “Structural basis for the broad substrate specificity of the human tyrosylprotein sulfotransferase-1” (Scientific Reports, 2017).
Blank lines part the entries; values can stand above or below the molecule they belong to.

Experiments:
[1] = target: recombinant human TPST1 (Lys43-Lys341), as crystallised with PAP and C4P5Y5 (human) (UniProt O60507)
[2] = target: the molecule itself; assay: crystal structure; human TPST1 (2.5 mg/ml) with 2 mM PAP and 1 mM C4P5Y5, sitting-drop vapor diffusion at 20 °C, 0.1 M Tris-HCl pH 8.5; 1.6 Å
[3] = target: the molecule itself; assay: crystal structure; human TPST1 (5.0 mg/ml, His tag removed) with 2 mM PAP and 3 mM gastrin peptide, sitting-drop vapor diffusion at 20 °C, crystals soaked 1 d with 30 mM gastrin peptide; 2.3 Å

K m of tyrosine sulfation of the peptide by human TPST1 ([35S]PAPS, TLC, 30 °C, pH 6.0) [1]: 652 µM
Molecule: gastrin peptide

B1: recombinant human TPST1 (Lys43-Lys341), as crystallised with PAP and C4P5Y5 (enzyme, UniProt O60507 43-341, looked up)
chain: KLESTRTTVRTGLDLKANKTFAYHKDMPLIFIGGVPRSGTTLMRAMLDAHPDIRCGEETRVIPRILALKQMWSRSSKEKIRLDEAGVTDEVLDSAMQAFLLEIIVKHGEPAPYLCNKDPFALKSLTYLSRLFPNAKFLLMVRDGRASVHSMISRKVTIAGFDLNSYRDCLTKWNRAIETMYNQCMEVGYKKCMLVHYEQLVLHPERWMRTLLKFLQIPWNHSVLHHEEMIGKAGGVSLSKVERSTDQVIKPVNVGALSKWVGKIPPDVLQDMAVIAPMLAKLGYDPYANPPNYGKPDPK
notes: thrombin site after the His tag (pET15b); Ordered in the crystal: Tyr65-Pro338 and Ala64-Gly336; also called tyrosylprotein sulfotransferase-1; core domain of human TPST1; source: Origami (DE3) cells carrying pGro7 (GroEL, GroES), purified (Ni-NTA, Superdex 200)
stoichiometry N [2]: 2

B2: recombinant human TPST1 (Lys43-Lys341), His tag removed, as crystallised with PAP and the gastrin peptide (enzyme, UniProt O60507 43-341, looked up)
chain: KLESTRTTVRTGLDLKANKTFAYHKDMPLIFIGGVPRSGTTLMRAMLDAHPDIRCGEETRVIPRILALKQMWSRSSKEKIRLDEAGVTDEVLDSAMQAFLLEIIVKHGEPAPYLCNKDPFALKSLTYLSRLFPNAKFLLMVRDGRASVHSMISRKVTIAGFDLNSYRDCLTKWNRAIETMYNQCMEVGYKKCMLVHYEQLVLHPERWMRTLLKFLQIPWNHSVLHHEEMIGKAGGVSLSKVERSTDQVIKPVNVGALSKWVGKIPPDVLQDMAVIAPMLAKLGYDPYANPPNYGKPDPK
notes: also called tyrosylprotein sulfotransferase-1; protomer-1A; source: Origami (DE3) cells carrying pGro7 (GroEL, GroES), purified (Ni-NTA, Superdex 200), His tag removed with bovine thrombin; not shown: 6xHis, N-terminal, cleaved
stoichiometry N [3]: 2
